Assay results as given in the supplement of paper PMC10126150.
± gives the standard deviation of the averaged measurements.

Tested on: ATP
Assay: switch fluorescence ratio, 500 uM ATP over buffer (Cy3 cluster intensity, sum of 5 cycles each) (fold (ratio)); higher = stronger signal-on switching upon ATP binding; sequences stand for … in TCGTCGGCAGCGTCAGATGTGTATAAGAGACAGTTTTTTTTTTTTTTTTTTTTTTTTT…TC
Details: aptamer strand: ATP DNA aptamer (quencher-CACCTGGGGGAGTATTGCGGAGGAAGG + anchor), 100 nM annealed; ATP concentration: 500 uM
Procedure, shortened: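 Clusters with intensities outside 100-1000 RFU were excluded. The remaining Cy3-labelled switching-strand clusters on a modified Illumina MiSeq flow-cell had been annealed to 100 nM quencher-labelled ATP aptamer and imaged in selection buffer, then after 15 min with 500 uM ATP at 22 °C, for five cycles separated by NaOH stripping and re-annealing. The fluorescence ratio, averaged per switch-domain sequence, is each cluster's summed target-cycle Cy3 intensity over its summed buffer-cycle Cy3 intensity.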
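Further: ATP exposure 15 min at 22 °C before imaging.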

GGGGATGCAG and CAATATCCCG are within error of each other in switch fluorescence ratio: 0.985 ± 0.049 for the first, 1.05 ± 0.028 for the second.

ATGGAGACGG and ATTAGGAAAA are within error of each other in switch fluorescence ratio: 0.979 ± 0.019 for the first, 1.02 ± 0.025 for the second.

ATGCGAAACC and AGTTGGAATT are within error of each other in switch fluorescence ratio: 1.02 ± 0.051 for the first, 0.979 ± 0.012 for the second.

Compared with CCTGTGTAAT, GAGCAACGGA is lower in switch fluorescence ratio: 3.18 ± 0.053 for the first, 1.02 ± 0.031 for the second.

ACTCATAATT and AATATGGGGG are within error of each other in switch fluorescence ratio: 1.0222 ± 0.00042 for the first, 1.01 ± 0.025 for the second.

AGGGCCCCTG and TTTTACGTTT are within error of each other in switch fluorescence ratio: 0.9941 ± 0.0044 for the first, 1.04 ± 0.12 for the second.

TTGTAGAGCT and AAATGGGAGC are within error of each other in switch fluorescence ratio: 0.949 ± 0.017 for the first, 0.99 ± 0.031 for the second.

TTGTGGGAAA and GTTCAGTGAG are within error of each other in switch fluorescence ratio: 1.02 ± 0.016 for the first, 0.995 ± 0.01 for the second.

GATGCCGTAG and GCTTGTATTA are within error of each other in switch fluorescence ratio: 0.9997 ± 0.0036 for the first, 0.985 ± 0.016 for the second.

GGTGAAGGGG and TGAGATATTG are within error of each other in switch fluorescence ratio: 1.15 ± 0.27 for the first, 0.997 ± 0.018 for the second.

AGGGTGAAAG and ATGAAAATCC are within error of each other in switch fluorescence ratio: 0.992 ± 0.023 for the first, 1.03 ± 0.021 for the second.

CGTGTTAGGG and TTTGCGAGGG are the same in switch fluorescence ratio: 1.0062 ± 0.00077 for the first, 1.01 ± 0.018 for the second.

First: GGGTGGGAGG
Second: GTTTTCGACT
The switch fluorescence ratio of the first is lower: 0.991 ± 0.034 for the first, 1.04 ± 0.0095 for the second.

Compared with TAGTCGGGGA, GACATTCACT is higher in switch fluorescence ratio: 1.03 ± 0.059 for the first, 1.108 ± 0.0088 for the second.

CTTGTGAGGA and ATGTCCTGTG are within error of each other in switch fluorescence ratio: 1 ± 0.036 for the first, 1.01 ± 0.028 for the second.

ACAAGGGGGG and CGTTTATGTA are within error of each other in switch fluorescence ratio: 1 ± 0.045 for the first, 0.995 ± 0.04 for the second.

TACTGAGTTA and TTTCGGGTAG are within error of each other in switch fluorescence ratio: 1 ± 0.015 for the first, 1.011 ± 0.0014 for the second.

AGTAACTAGA and AGGGGAGGGT are within error of each other in switch fluorescence ratio: 1.01 ± 0.046 for the first, 1 ± 0.015 for the second.

TGTGGGAATT and AATCGGAATT are the same in switch fluorescence ratio: 1.01 ± 0.049 for the first, 1.01 ± 0.03 for the second.

Compared with TTTCTTAGGT, TTGGGTCCAA is lower in switch fluorescence ratio: 1.03 ± 0.014 for the first, 0.983 ± 0.017 for the second.

TTTTTATGCG and CGAGTGTGGG are within error of each other in switch fluorescence ratio: 0.999 ± 0.06 for the first, 1.01 ± 0.021 for the second.

Going from GACATTATGC to GCGAGTGTCC, the switch fluorescence ratio falls from 1.03 ± 0.014 to 0.99 ± 0.019.

GGGTTGTTAG and TACTTCTGTG are within error of each other in switch fluorescence ratio: 0.996 ± 0.027 for the first, 1 ± 0.018 for the second.

TACTTTTGGA and AGGGTGGCTT are the same in switch fluorescence ratio: 1.02 ± 0.04 for the first, 1.02 ± 0.088 for the second.

TTTGTTAAGC and GGGCATGGAG are within error of each other in switch fluorescence ratio: 0.973 ± 0.061 for the first, 0.992 ± 0.02 for the second.

ACTAGGATGG and ATGAGGACCC are within error of each other in switch fluorescence ratio: 0.99 ± 0.026 for the first, 0.982 ± 0.022 for the second.

ACTGGGGGGT and TTGATTAGTT are within error of each other in switch fluorescence ratio: 0.994 ± 0.02 for the first, 0.982 ± 0.036 for the second.

TGTTAGATTT and GACGGGGTGG are within error of each other in switch fluorescence ratio: 1.05 ± 0.19 for the first, 1.01 ± 0.059 for the second.

CATCTCTGGA and AAGGATCTGC are within error of each other in switch fluorescence ratio: 0.9986 ± 0.0016 for the first, 0.967 ± 0.052 for the second.

TAAGAATTCG and CGGGCTGGAG are within error of each other in switch fluorescence ratio: 1.04 ± 0.056 for the first, 1.09 ± 0.079 for the second.

TGGCAATGAA and CGAGAAGGGT are within error of each other in switch fluorescence ratio: 1.28 ± 0.35 for the first, 0.997 ± 0.039 for the second.

Compared with GGGGAAGTAC, ACCATAAGGG is lower in switch fluorescence ratio: 1.53 ± 0.31 for the first, 1 ± 0.028 for the second.

AACGAGTGGG and CAATGTCGTT are within error of each other in switch fluorescence ratio: 1.03 ± 0.019 for the first, 0.985 ± 0.047 for the second.

Going from TATTGTTTGA to CCGTTAGCGG, the switch fluorescence ratio rises from 0.9578 ± 0.0067 to 1.1074 ± 0.00044.

AAACGGGGGG and GGTGTGAGGT are within error of each other in switch fluorescence ratio: 0.99 ± 0.024 for the first, 0.9973 ± 0.0093 for the second.

GTGGTAGAGC and TTGCTATAGA are within error of each other in switch fluorescence ratio: 0.991 ± 0.033 for the first, 1.01 ± 0.017 for the second.

TGGGGGATGG and AAGGAGTTTG are within error of each other in switch fluorescence ratio: 0.996 ± 0.057 for the first, 0.969 ± 0.045 for the second.

Going from ATTATATGGG to TGTGGGGGCA, the switch fluorescence ratio falls from 1.016 ± 0.0029 to 0.9953 ± 0.0057.

TGTGGCATTA and TTGAATTTAG are within error of each other in switch fluorescence ratio: 0.992 ± 0.023 for the first, 0.986 ± 0.015 for the second.

ATAGGGTGCT and TCCGATTTAT are within error of each other in switch fluorescence ratio: 1.04 ± 0.027 for the first, 0.989 ± 0.026 for the second.

GGAGCCTGGT and TTAAACGTTT are within error of each other in switch fluorescence ratio: 1.01 ± 0.022 for the first, 1.02 ± 0.021 for the second.

CTATAAGTCT and GTTTTTCCAT are within error of each other in switch fluorescence ratio: 1.022 ± 0.0033 for the first, 1 ± 0.024 for the second.

Compared with CTTTTTGGAC, ACGGCACTCG is higher in switch fluorescence ratio: 0.994 ± 0.071 for the first, 1.4 ± 0.1 for the second.

TTAGTATCGA and TACGGTGTGC are within error of each other in switch fluorescence ratio: 0.966 ± 0.029 for the first, 0.989 ± 0.024 for the second.

TGGTTGGCGT and TTTGGGGGAT are within error of each other in switch fluorescence ratio: 1.04 ± 0.066 for the first, 1.02 ± 0.1 for the second.

Going from GAAGAAAACT to CAGTATTAGA, the switch fluorescence ratio falls from 1.08 ± 0.014 to 1.003 ± 0.0037.

GCTACTTAAA and TCTCATGGAG are within error of each other in switch fluorescence ratio: 1.03 ± 0.025 for the first, 1 ± 0.012 for the second.

Compared with CCTCGCGGGA, GCGAGGAATC is lower in switch fluorescence ratio: 1.8 ± 0.028 for the first, 1.0365 ± 0.00015 for the second.

TAGGGTTGCA and TTCGAGACGG are within error of each other in switch fluorescence ratio: 1 ± 0.057 for the first, 0.98 ± 0.025 for the second.

Going from TTGTTGGAGG to CAGAACGCTG, the switch fluorescence ratio rises from 0.982 ± 0.025 to 1.35 ± 0.12.

GATGGCAAGG and GGGTTCTCAG are within error of each other in switch fluorescence ratio: 1.04 ± 0.043 for the first, 0.995 ± 0.024 for the second.

ACGTCTTTGG and TTTAGAATTT are within error of each other in switch fluorescence ratio: 1.02 ± 0.043 for the first, 1.01 ± 0.019 for the second.

AGAAGAGTGT and TGTACGGGGT are within error of each other in switch fluorescence ratio: 1.03 ± 0.038 for the first, 1.01 ± 0.021 for the second.

CGTTTTACCG and GCCCACGGGA are within error of each other in switch fluorescence ratio: 1.02 ± 0.032 for the first, 1.07 ± 0.039 for the second.

First: TCTGTAGCGG
Second: GGTTGGGGGT
The switch fluorescence ratio of the first is higher: 1.13 ± 0.037 for the first, 1.01 ± 0.045 for the second.

TCAGTGAACT and AGGGTGACAG are within error of each other in switch fluorescence ratio: 1 ± 0.039 for the first, 0.9566 ± 0.0056 for the second.

First: TTCCCGCGTA
Second: GGGCGCTGGG
The switch fluorescence ratio of the first is higher: 1.19 ± 0.13 for the first, 1 ± 0.032 for the second.

AAATCGTTTT and AGCATACAAA are within error of each other in switch fluorescence ratio: 0.972 ± 0.047 for the first, 0.98 ± 0.012 for the second.

GGGTGATGAA and TTTTTAACTC are within error of each other in switch fluorescence ratio: 1 ± 0.045 for the first, 1.03 ± 0.021 for the second.

TATAATCATT and CGGAGGGTGG are within error of each other in switch fluorescence ratio: 0.985 ± 0.028 for the first, 0.961 ± 0.041 for the second.

TGGTCGTCTT and CCGGGGGGGT are within error of each other in switch fluorescence ratio: 1.05 ± 0.035 for the first, 1.09 ± 0.077 for the second.

CAGAGGAGGC and TTCGTAGTTG are within error of each other in switch fluorescence ratio: 0.987 ± 0.016 for the first, 0.992 ± 0.054 for the second.

GACCATCTGT and TACCTCTTAA are within error of each other in switch fluorescence ratio: 1.02 ± 0.024 for the first, 1.05 ± 0.026 for the second.

Compared with GAGGTTGGGC, CGTCCAGCGT is higher in switch fluorescence ratio: 0.993 ± 0.03 for the first, 1.2 ± 0.067 for the second.

GGTTGGTTTG and ATGGCTGGGG are within error of each other in switch fluorescence ratio: 0.99 ± 0.06 for the first, 1 ± 0.019 for the second.

TATAATGGTG and CGGACTCGTG are within error of each other in switch fluorescence ratio: 0.976 ± 0.021 for the first, 0.954 ± 0.021 for the second.

AATGTGCGTT and TAGGTTTTTT are within error of each other in switch fluorescence ratio: 0.993 ± 0.04 for the first, 0.989 ± 0.035 for the second.

TTTCATGGCT and AAAAAAGTTC are within error of each other in switch fluorescence ratio: 1.01 ± 0.035 for the first, 0.984 ± 0.022 for the second.

Going from GGATGGTTGG to GAGCTATTCT, the switch fluorescence ratio rises from 1.012 ± 0.0068 to 1.08 ± 0.0029.

TTCACCCGTC and AAAGTCTTGT are within error of each other in switch fluorescence ratio: 0.971 ± 0.023 for the first, 1.01 ± 0.035 for the second.

First: GGTTTGCGGG
Second: GAGGTATTAT
The switch fluorescence ratio of the first is higher: 1.01 ± 0.0095 for the first, 0.9688 ± 0.0074 for the second.

AGGTATGGAG and AAGCCGGAGC are within error of each other in switch fluorescence ratio: 0.981 ± 0.065 for the first, 1.02 ± 0.053 for the second.

TTTCCTATAA and CTCGTTTTGA are within error of each other in switch fluorescence ratio: 1.13 ± 0.21 for the first, 0.975 ± 0.023 for the second.

GCCTGCATTT and AGCTGAAGCC are within error of each other in switch fluorescence ratio: 1.02 ± 0.021 for the first, 1.03 ± 0.028 for the second.

CAGATTGTGT and TCAGTTGGGA are within error of each other in switch fluorescence ratio: 1 ± 0.039 for the first, 0.9697 ± 0.0062 for the second.

GGCATGAGGT and AATGGATTTT are within error of each other in switch fluorescence ratio: 1 ± 0.016 for the first, 0.982 ± 0.013 for the second.

Compared with ACCCCTATTT, TGTTCCTTTT is lower in switch fluorescence ratio: 1.1116 ± 0.00045 for the first, 1.03 ± 0.023 for the second.

Compared with AATGGGATTC, CTTGCTGTTG is higher in switch fluorescence ratio: 0.9881 ± 0.009 for the first, 1.0031 ± 0.00076 for the second.

Work on ACATGTTGGT yielded a switch fluorescence ratio of 1.02 ± 0.028.
